Measurements published in the supplement of paper PMC10724198.
± gives the standard deviation of the averaged measurements.

tested on: Saccharomyces cerevisiae; assay: protein stability index of tFT-peptide fusion (C-terminal peptide) (PSI (0-1 scale)); higher = more stable (slower turnover); conditions: genetic background: wild type; temperature: 30 C
Experimental: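 Multiplexed protein stability (MPS) profiling in S. cerevisiae. Random 12-aa peptides (tFT-X12 library) are fused to the C-terminus of a sfGFP-mCherry tandem fluorescent timer, after mCherry and a GGGS linker. Cells are FACS-sorted into 8 mCherry/sfGFP bins and deep-sequenced. The protein stability index (PSI) is the read-weighted bin average, scaled from 0 (unstable) to 1 (stable). Only peptides with >10 reads are reported; cells were grown at 30 °C in SC-His with glucose.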
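Further: PSI is a weighted mean of sequencing reads over stability bins, variants kept only with over 10 reads, mCherry proximal and sfGFP distal, peptide attached via GGGS linker.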

| Sequence | protein stability index |
| --- | --- |
| GYLPPPDSLSSS | 0.672 ± 0.023 |
| GYLVECKRLCVW | 0.588 ± 0.024 |
| GYNARHILGRVG | 0.699 ± 0.011 |
| GYNCKWGRTNVT | 0.6782 ± 0.0024 |
| GYPASGVLIVFF | 0.512 ± 0.026 |
| GYPLRSHCLIVD | 0.68 ± 0.0081 |
| GYSPMGFSFFPV | 0.673 ± 0.047 |
| HAPLIPRFALIP | 0.677 ± 0.013 |
| HAPSRAPFPTAS | 0.71 ± 0.067 |
| HCFCFSVSSFFG | 0.667 ± 0.026 |
| HCFFSVPFRSGF | 0.691 ± 0.045 |
| HCLLLSLVFFFW | 0.727 ± 0.03 |
| HCSYSSSRPSPR | 0.543 ± 0.043 |
| HDWPQTTRADQS | 0.677 ± 0.036 |
| HFGRYLSSVFGV | 0.679 ± 0.05 |
| HFGSSLPPFCCI | 0.76 ± 0.021 |
| HFKHLALVQQFP | 0.69 ± 0.048 |
| HFPPPPRPSAPP | 0.681 ± 0.036 |
| HFSPLILSSYTV | 0.693 ± 0.037 |
| HFVDAIPEGIHA | 0.583 ± 0.023 |
| HGCQGKVRQSHR | 0.651 ± 0.039 |
| HGCVWCSGLFGV | 0.739 ± 0.029 |
| HGHLGKFLGARE | 0.689 ± 0.022 |
| HGISLVWEVGEG | 0.6439 ± 0.0035 |
| HGLPSFANPGNF | 0.716 ± 0.0095 |
| HGNWGSSPVVSG | 0.632 ± 0.055 |

| Sequence | protein stability index |
| --- | --- |
| HGPFLSNLLPDK | 0.799 ± 0.085 |
| HGVVGVFGLVSG | 0.664 ± 0.0075 |
| HIGSYTFILPSS | 0.759 ± 0.064 |
| HIHHVPGPHITA | 0.706 ± 0.0088 |
| HIHQDPGVIRWG | 0.7216 ± 0.0015 |
| HIHRGDRVIGDV | 0.682 ± 0.01 |
| HINVAVAKYSRQ | 0.697 ± 0.047 |
| HIPPFSPCPPTG | 0.707 ± 0.02 |
| HITMERTERTKY | 0.7145 ± 0.0057 |
| HKEHLDNPRLRP | 0.714 ± 0.012 |
| HKKAWVVTVGIS | 0.602 ± 0.042 |
| HKRCCIPTNDSQ | 0.6991 ± 0.0063 |
| HKTNTSRKSRRT | 0.737 ± 0.12 |
| HLCLACYRSVDM | 0.688 ± 0.011 |
| HLFYASCNSSAS | 0.67112 ± 0.00053 |
| HLLCPLSPYICH | 0.681 ± 0.02 |
| HLLNPVRSPLPA | 0.63 ± 0.063 |
| HLPLPPRLLTHV | 0.654 ± 0.042 |
| HLPPPPTPFPLT | 0.757 ± 0.16 |
| HMCPWVWPVRDQ | 0.691 ± 0.024 |
| HMGTNSSTGDRN | 0.636 ± 0.032 |
| HNIRIDTSEKNR | 0.6001 ± 0.0024 |
| HNKTTNGNSHKN | 0.715 ± 0.073 |
| HPATPPPLLPPL | 0.74479 ± 0.0007 |
| HPFLPLFYHFPF | 0.733 ± 0.037 |
| HPPASPPHSPRS | 0.63 ± 0.07 |

| Sequence | protein stability index |
| --- | --- |
| HPPKPHHPSNPC | 0.691 ± 0.034 |
| HPPLLPPPTPTS | 0.752 ± 0.062 |
| HPPLPPPLPGSP | 0.761 ± 0.049 |
| HPPPDPPFLAST | 0.611 ± 0.042 |
| HPPPVLSPPLSP | 0.7107 ± 0.0033 |
| HPPSPPPPPSRL | 0.713 ± 0.071 |
| HPPTLPPLPIPP | 0.625 ± 0.0091 |
| HPRPPAASSRTR | 0.707 ± 0.044 |
| HPRWTPPTQSAS | 0.716 ± 0.049 |
| HPSSLRLSSSAF | 0.697 ± 0.014 |
| HPVLGPNRVINI | 0.71 ± 0.087 |
| HPVPFSVASHLN | 0.645 ± 0.03 |
| HPWAFRIRTPRL | 0.752 ± 0.09 |
| HPYVTSHGRPLR | 0.677 ± 0.024 |
| HQPSPFPKNSPT | 0.717 ± 0.06 |
| HRARWLSLGVTW | 0.655 ± 0.035 |
| HRCNCVFPENSL | 0.693 ± 0.038 |
| HRFEEGAPAPTE | 0.704 ± 0.013 |
| HRGIPMRDLAPN | 0.675 ± 0.02 |
| HRKPHRSKTPIH | 0.693 ± 0.032 |
| HRLSFPTQNIRG | 0.677 ± 0.019 |
| HRPPSVNRVSLM | 0.692 ± 0.012 |
| HRRCPILFKMAT | 0.674 ± 0.12 |
| HRSIDEGCSCCD | 0.627 ± 0.093 |
| HSCFPPLSTSVL | 0.817 ± 0.12 |
| HSGDLYFWGCRD | 0.706 ± 0.061 |

| Sequence | protein stability index |
| --- | --- |
| HSLRRLSLYVSL | 0.612 ± 0.086 |
| HSPHSQYLLRID | 0.72 ± 0.033 |
| HSPPSPHFPHHH | 0.6609 ± 0.0043 |
| HSPVPPLPALPL | 0.73 ± 0.024 |
| HSQAPPPHPHAP | 0.719 ± 0.024 |
| HSRALLSVLPPH | 0.7023 ± 0.0057 |
| HSRPHTAPPYRA | 0.643 ± 0.023 |
| HSSDTAFSPLPP | 0.6449 ± 0.0024 |
| HSWFSWSVVSEL | 0.7308 ± 0.0018 |
| HSYLSPPLLASP | 0.715 ± 0.069 |
| HTEELKKSIKTQ | 0.637 ± 0.082 |
| HTEVDIVKRDRR | 0.6896 ± 0.00098 |
| HTGPTRPGHPLP | 0.703 ± 0.03 |
| HTRLCFSPPRGI | 0.686 ± 0.02 |
| HTWARGLGVIRP | 0.768 ± 0.012 |
| HTYKADSLYTAR | 0.748 ± 0.015 |
| HVRLSCTRGMVI | 0.695 ± 0.015 |
| HVVVSPRSNRIL | 0.7429 ± 0.0055 |
| HWPSPLSPAVPG | 0.804 ± 0.084 |
| HWRWGGRSGGDR | 0.707 ± 0.013 |
| HYPLPPLLPPAP | 0.674 ± 0.014 |
| HYRSNFGRDSNL | 0.762 ± 0.082 |
| IAAPANQGHSKP | 0.694 ± 0.042 |
| IACDPNNRKDFT | 0.627 ± 0.008 |
| IACSVWYCCMVI | 0.526 ± 0.014 |
| IAEVGRFHLVVS | 0.542 ± 0.04 |

| Sequence | protein stability index |
| --- | --- |
| IALWLYALSLAF | 0.532 ± 0.016 |
| ICCGLCRDCSCL | 0.732 ± 0.069 |
| ICEYGLKRKIHF | 0.68199 ± 0.0006 |
| ICRFSNRYSCPL | 0.689 ± 0.016 |
| ICSVGGFWLSCV | 0.596 ± 0.032 |
| ICVTSFSVWGCC | 0.592 ± 0.028 |
| IDLVLCIGLGYQ | 0.62 ± 0.063 |
| IDPTLPARAAPP | 0.737 ± 0.029 |
| IDPVVFCEYTHA | 0.688 ± 0.011 |
| IDVIIESVFSLF | 0.619 ± 0.09 |
| IEFPQGRKTTQS | 0.629 ± 0.0082 |
| IENNIITRGTRV | 0.735 ± 0.027 |
| IERFKKMRGVGS | 0.801 ± 0.084 |
| IERKNYPQNRRQ | 0.62 ± 0.046 |
| IFGMSGYVSIIL | 0.671 ± 0.014 |
| IFNYGGANFIYC | 0.714 ± 0.028 |
| IFPPPLLPSLPT | 0.703 ± 0.086 |
| IFRTRISSSLWC | 0.685 ± 0.0083 |
| IFVTLGWARMRY | 0.647 ± 0.065 |
| IFWGFSFRGWGG | 0.684 ± 0.0086 |
| IGFCVRGYGTTG | 0.727 ± 0.1 |
| IGFPFRIYRFAF | 0.563 ± 0.04 |
| IGGGWIGRYVSR | 0.684 ± 0.033 |
| IGGWWCGALLGD | 0.79 ± 0.074 |
| IGHVVTWCFGRV | 0.6898 ± 0.0041 |
| IGLKKVVKIRKD | 0.614 ± 0.039 |

| Sequence | protein stability index |
| --- | --- |
| IGTRHIKILGRY | 0.698 ± 0.047 |
| IGVRSTRFCAIR | 0.655 ± 0.0093 |
| IGVVKHGAAEKV | 0.711 ± 0.069 |
| IGWCPASFMVIG | 0.585 ± 0.049 |
| IHLSVYPLQPSC | 0.76 ± 0.04 |
| IHQVGCFHIPFG | 0.666 ± 0.0097 |
| IIQNNNQLKKRR | 0.671 ± 0.049 |
| IIRKTKSKQEMI | 0.706 ± 0.039 |
| IIVPCGRWEGGG | 0.69 ± 0.017 |
| IIVWGGAGLWGV | 0.59 ± 0.0027 |
| IKGKNTGKERER | 0.6176 ± 0.00089 |
| IKKRDKAKKEYI | 0.672 ± 0.0077 |
| IKKSMKSLTRTE | 0.735 ± 0.015 |
| IKKYNEKRITKV | 0.66 ± 0.045 |
| IKLKVKIQKENG | 0.654 ± 0.021 |
| IKNEEKKLIESQ | 0.76 ± 0.073 |
| IKNEKKKKKNKK | 0.7 ± 0.035 |
| IKNSCAGCTRDV | 0.671 ± 0.035 |
| IKSKFILKTRPM | 0.691 ± 0.091 |
| ILCTVVKTDSKE | 0.702 ± 0.081 |
| ILGGRIRLVGRK | 0.708 ± 0.033 |
| ILLFLLPFSHRL | 0.658 ± 0.076 |
| ILLSHRLQVSSC | 0.564 ± 0.035 |
| ILPCSRYNILNV | 0.659 ± 0.0078 |
| ILSASSLFPFVS | 0.693 ± 0.053 |
